Our source for the Ki values is US6913892.

In this test the target is Y2-like receptor population expressed by human SK-N-Be(2) neuroblastoma cells. Nature of the test: 125I-PYY displacement, SK-N-Be(2) membranes.

Where no end group is shown, it is not given here.

With SPEELSRYYASLRHYLNLVTRQRY-NH2 (peptide, UniProt P68005 13-36, looked up) [porcine PYY13-36], the Ki (in general, a dissociation constant, usually derived from enzyme kinetics or from competition with a known ligand) is 860 pM.
